Measured values reported in paper PMC4643112, “Diversity of hydrolases from hydrothermal vent sediments of the Levante Bay, Vulcano Island (Aeolian archipelago) identified by activity-based metagenomics and biochemical characterization of new esterases and an arabinopyranosidase” (Applied Microbiology and Biotechnology, 2015).

Substrate: CCCC(=O)Oc1ccc([N+](=O)[O-])cc1
Assay: colorimetric p-nitrophenol release
Format: biochemical, Rhodothermus profundi
Conditions: 50 mM potassium phosphate pH 7.0, 0.1 % Triton X-100, standard assay, substrate varied 1-40 mM as printed

B1: LIPESV12_26 (Rhodothermus profundi) (protein)
chain: MPHPTIQTVDLAYRSYGTEGPPLLILHGLLGSSGNWHTLARNAFSPHFRVFALDLRGHGRSPHAHPIDYPTMAADVQAFMDRHHLESAHVLGHSMGGKVAMELALSAPERVRRLVVVDIAPRSYPARHRTILDALQAIDPARYANRQAIDQALATYVPEAPIRQFLLKNLLYNPATRRYTWQVDLDGLVRYYDRINAAITDGRQFTGPVLFVRGARSDYLTEADWPTIRQLFPDACLATIPEAGHWVHADAPEAFAHLVLAFLQEKSGCVSSSKS
notes: full length, 275 residues, His6-tagged (pET-46c Ek/LIC), E. coli BL21(DE3); primers (translated) start MPHPTIQ, end VSSSKS; catalytic S94, D218, H245
B1 was tested, and the Km was 100 µM.
